From article PMC9170038

Biological target: MS2 coat protein, dlFG mutant (Escherichia phage MS2, UniProt P03612, del68-81insG)
Test: 4 mM Mg2+; no ligand; RNA-MaP array; 100 mM Tris-HCl pH 7.5, 80 mM KCl, 4 mM MgCl2, 0.1 mg/mL BSA, 1 mM DTT, 0.01 mg/mL yeast tRNA, 0.01% Tween-20; protein 1.5 nM to 3 uM; 37 C (Table S3)
Settings: chain copies: 2; label: tethered by stalled RNA polymerase

Binder	Kd [nM]
Eterna 7691283 (Same State - Arginine B) (ssRNA) RNA: AUUCUAUUGUGAAGGAGCGCGACUAGUAGUGAUGUUACUAUAUGACUUUAGUCUUAAUUCUCGCAGGUAGGUCGCACAAUAUAUA	> 3000
Eterna 1774 (Same State - Tryptophan B) (ssRNA) RNA: CGAUCUUGGUCGGCCGCCACUACACCCACACCAAAUAGGAAAGUAGCGAGUGAUGUUUGUGACGUUAGGACCGGGACCACUGGUC	> 3000
Eterna 13336 (Sensor for hsa-mir-208a) (ssRNA) RNA: AGUCCAGCCAGAGCUGGACAAAAGCAUGUACAUGAGGAUCACCCAUGUUCAUGUACAAGCUUUUUGCUCGUCUUAAA	592
Eterna 6120937 (Same State NG 1) (ssRNA) RNA: GCCAUCACAUGAGGAUAUGGCACCGUUUCGGUGCCAGAAGGCAUGUCAUAAGACAUGAGGAUCACCCAUGUAGUUAAGAUGGCA	922
Eterna 6418068 (Inverted Exclusion NG 1) (ssRNA) RNA: CGUGCUAUGUAGAAGGCAGAUCUGAUUCAGAUCUGAGGAUAUACAUGAGGAUCACCCAUGUUAUGCACCAGCACGAGAGUGCAC	7.12
Eterna 6061522 (Exclusion 3) (ssRNA) RNA: AAUUCGGCAGGAUAUACAUGAGGAUCACCCAUGUAAAUUUUUCGUUUAACUUGAAUGUGUAGAAGGGCCAUUUA	22.8
Eterna 6073973 (Exclusion 2) (ssRNA) RNA: UAGAUGGGAGGAUAUACGUAUAUGCAGGUUCGUGUGGUGCUACAUGAGGAUCACCCAUGUAGAAGGCCCGUCUU	19.1
Eterna 11801 (Exclusion 2) (ssRNA) RNA: AGUAACAGAGGAUAUACUGUUUUAUGUGUUUAUUAUUUUGAACAUGAGGAUCACCCAUGUAGAAGGCUGAAUAA	23.2
Eterna 5789023 (Sensor v3, turn-off variant 2) (ssRNA) RNA: ACAAGCUUUUUGUUCGUCUUAUAAAAUCCUAAGAGGAAAACAUGAGGAUCACCCAUGUAACAAAGACGGACUCAUGU	13
Eterna 7740606 (Exclusion - Theophylline A) (ssRNA) RNA: AAGUCUCGUUAAUUCGAGGUUACGAUCGAUACCAGUAGCGAGAGGUACCCUUGGCAGCGAAGUGAGUGAUGUUCAUGAAAGAAGA	> 3000
Eterna 13502 (Sensor v3, turn-off variant 2) (ssRNA) RNA: AGUAGAUCUACGCUUGCGUGGAUCUGCAAUGUAGGUGUUACAUGAGGAUCACCCAUGUCCUCAUUUGCUCGUCUUAG	312
Eterna 5982897 (Exclusion 6) (ssRNA) RNA: GCAUGCUCCGAGGAUAUCGAAGCUAAUUAUGCACGAGAAGGCGGAACAUGAGGAUCACCCAUGUGAUGCCUAAA	14.4
Eterna 7698835 (Same State - Arginine B) (ssRNA) RNA: GCUAUGGUAGGAAGGAGCGCUUAUUUAUUUUUACGAGUGAUGUUCGGUAGUAGAUAGUUAAAGCAGGUAGGUCGCCUACUAUAGC	> 3000
Eterna 6055371 (Brourd's mod of Exclusion 4) (ssRNA) RNA: GAUCGCCAUGUCAGGAUAUCUUGUAUACCCACGUUAGAGAAGGGACAUGAGGAUCACCCAUGUACCCUGGUUUU	15.4
Eterna 6456081 (Exclusion NG 2) (ssRNA) RNA: GGAUAGGACAGAGGAUAUACGUGCUAGAGAUACUAGCAAAAUUUCCACACAUGAGGAUCACCCAUGUAGAAGGCUGUCCUAUCG	5.84
Eterna 6433398 (Small Loop Exclusion NG 3) (ssRNA) RNA: UGAUCGAGAGAUCUUAGAUUCUGGUAGGAUAUACAUUAUAAAAGCUUUACAUGAGGAUCACCCAUGUAGAAGGACUAGAGUCUA	6.84

Binder	Kd [nM]
Eterna 7609491 (Same State - Tryptophan A) (ssRNA) RNA: ACAUGAGGAUCACCCAUGUUUGUUGUUCCUCGAGGACCGGUACGGCCGCCACUCGAACGAGUGGCACGCGAGUGCGCACUCGCGU	12.3
Eterna 9534 (Sensor v3, turn-off variant 2) (ssRNA) RNA: GGUACUAUCACCUGAGUGGUAGUGCCAUAAGCUUGUGAUACAUGAGGAUCACCCAUGUCCUCAUUUGCUCGUCUUAU	600
Eterna 6415900 (Inverted Small Loop Same State NG 3) (ssRNA) RNA: UGCUACGUUUCGUAGCAGUGUCAUCGAGAAGGCCCUGACAUGAGGAUCACCCAUGUUGUUACAUGGGAGGAUAUCGAUGAUACA	12.1
Eterna 6117727 (Exclusion NG 3) (ssRNA) RNA: GGUUGUCAUAGUCAUCCUUUCCGUACAUGAGGAUCACCCAUGUAGGAUAUGCUACUCACAGUGUGGCAGAAGGGCGUGUGUCUU	17
Eterna 5989570 (Sensor, turn-off variant 1) (ssRNA) RNA: GUCAUCACACAUGGGAUCAACAUGAGGAUCACCCAUGUUGUCAAGUUUUUUGCUCGUCUUAUAAUACGUUUGAUGAC	30.2
Eterna 6430466 (Small Loop Same State NG 3) (ssRNA) RNA: UUCGAGCCAAGGCUCGCGAGUACACAGGAUAUGGAAAGUCACAUGAGGAUCACCCAUGUCCAAAACCAGAAGGGUGAGACUAAG	458
Eterna 6429522 (Inverted Exclusion NG 3) (ssRNA) RNA: GUGGAUAGACGCCCACGUGAGACAUGAGGAUCACCCAUGUACAGAAGGUGGAGCGUUAAUGGUGCCAAGGAUAUGUACAUAAGG	4.92
Eterna 5984275 (Exclusion 4) (ssRNA) RNA: AUUGUGUGAGGAUAUUAGCAGUAGACGAAUGGAGUCGUGGCUGAGAAGGCACAUGAGGAUCACCCAUGUUCCUU	16.8
Eterna 6441202 (Exclusion NG 1) (ssRNA) RNA: ACAUUUUAUGCAGGAUAUUGACAUAGGAUUAAACAAGAAGGGCAUUACAUGAGGAUCACCCAUGUUUUAUUGGUAUAUAAGUUC	15.5
UUUGGGCAGUGAUGUUGCCCCUUU (ssRNA) [Eterna 7 (K4-TR_control)]	> 3000
Eterna 6030125 (Exclusion 6) (ssRNA) RNA: GUGCGUGGCUAGGAUAUUGUGGAGUUUUGUCAGCGAGAAGGAGCCACAUGAGGAUCACCCAUGUGGUGUUGCUC	175
Eterna 7745506 (Same State - Arginine B) (ssRNA) RNA: CCGGGCGGCCGAAGGAGCGGGCGGACCCGAGUGAUGUUCGGGUGGCCCGUGAGGGCCGGUGCCCAGGUAGGUCGCGGAUCCGCCC	> 3000
Eterna 15484 (Exclusion 5) (ssRNA) RNA: CUUUGAUGAGGAUAUCGAGGUUAGUACAUGAGGAUCACCCAUGUUAUCCAGGUGUCGGAUCGAGAAGGUAUUGGAC	14.9
Eterna 5979585 (Sensor, turn-off variant 1) (ssRNA) RNA: UACACUGCAUGAGGAUCAAACAUGAGGAUCACCCAUGUAUAGCAGGCUUUUUGUACGUCUUAUAAUUAUGUAGUGUA	15.1
Eterna 7716240 (Exclusion - Theophylline B) (ssRNA) RNA: GGUUUAUAAGAGGAUACCAGUACAAAUAAAGUACAUUAAUAGUAGAGUGAUGUUCUAAAGUACCCUUGGCAGCUUAGAUUAAGUU	> 3000
Eterna 9910 (Sensor v3, turn-off variant 1) (ssRNA) RNA: GAUUAUGCAAGCUUUCGGGACAUGAGGAUCACCCAUGUUCGUCUUAUUGAUCUAGGUACGCUGACGUACCUAGAUCU	16.5
